{
  "source": "patent US12356911B2",
  "about": "“Group of UDP-glycosyltransferase for catalyzing carbohydrate chain elongation and application thereof” (GSYNBIOT (SHANGHAI) CO., LTD, priority 2017, dated 2025)",
  "type_in_all_cases": "biochemical",
  "key": {"[1]": {"experiment": "In vitro transglycosylation at C-6, Rg1 as glycosyl acceptor, UDP-xylose as donor", "details": "crude enzyme (E. coli lysate supernatant); TLC and HPLC, FIG. 7-9"}, "[2]": {"experiment": "In vitro transglycosylation at C-3, Rh2 as glycosyl acceptor, UDP-glucose as donor", "details": "crude enzyme (E. coli lysate supernatant); TLC, FIG. 13, FIG. 15", "description": "Cell lysate of recombinant E. coli with empty vector pET28a was used as a control."}, "[3]": {"experiment": "In vitro transglycosylation at C-3, Rd as glycosyl acceptor, UDP-xylose as donor", "details": "crude enzyme (E. coli lysate supernatant); TLC, FIG. 14"}},
  "data": [
    {"molecule": "GT29-5: Ginseng UDP-glycosyltransferase, 446 amino acids, SEQ ID NO: 14 (protein, misc_feature - GT29-5; Panax ginseng) MDNQKGRISIVMLPFLAHGHISPFFELAKHLSKRNCNIFLCSTPINLSSIKNRISDKDSSASIKLVELHLPSSPDLPPHYHTTNGLPSHLMVPLRNAFETAAPTFSEILKTLNPDLLIYDFNPSWAPEIASSHNIPAVCFIIGGAASFSMSLHSFKNPGEKYPFLDFDDNSNITPEPPSADNMKLLLDFMTCFERSCDIILIKSFRELEGKYIDLLSTLSDKTLVPVGPLVQDPMGHNEDPKTEQIINWLDKRAESTVVFVCFGSEYFLSNEELEEVAIGLEISMVNFIWAVRLIEGEKKGVLPEGFVQRVGDRGLVVEGWAPQARILGHSSTGGFVSHCGWSSIAESMKFGVPVIAMARHLDQPLNGKLAAEVGVGMEVVRDENGKYKREGIAEVIRKVVVEKSGEVIRRKARELSEKMKEIGEQLIDRAVEELVQICKKKKDEQ", "values": [
      {"measurement": "product formation from Rg1 and UDP-xylose (notoginsenoside R1)", "setting": "[1]", "value": "can catalyze the formation of Notoginsenoside RI"}
    ]},
    {"molecule": "GT29-7: Ginseng UDP-glycosyltransferase, 446 amino acids, SEQ ID NO: 16 (protein, misc_feature - GT29-7; Panax ginseng) MDNQKGRISIALLPFLAHGHISPFFELAKQLAKRNCNVFLCSTPINLSSIKNRVSDKDSSASIKLVELHLPSSPDLPPHYHTTNGLPSHLMIPLRNAFDTAGPTFSEILKTLNPDLLIYDFNPSWAPEIASSHNIPAVCFIIGGAASSSMSLHSFKNPGEKYPFLDFDDNSNITPEPPSADNMKLLINFMTCFERSCDIILIKSFRELEGKYFDFFSTLSDKTLVPVGPLVQDPMGHNEDPKTEQFINWLDKRAESTVVFVCFGSECFLSNEELEEVAIGLEISMVNFIWAVRLIEGEKKGVLPEGFVQRVGDRGLVVEEWAPQARILGHSSTGGFVSHCGWNSITESMKFGVPVIAMARHFDQPLNGKLAAEVGVGMEVVRDENGKYKREGIAEVIRKVVVEKSGEVIRRKARELSEKMKEKGEQEIDRVVEELVQICKKKKDEQ", "values": [
      {"measurement": "product formation from Rg1 and UDP-xylose (notoginsenoside R1)", "setting": "[1]", "value": "can catalyze the formation of Notoginsenoside RI"}
    ]},
    {"molecule": "GT29-9: Ginseng UDP-glycosyltransferase, 446 amino acids, SEQ ID NO: 18 (protein, misc_feature - GT29-9; Panax ginseng) MDNQKGRISIVMLPFLAHGHISPFFELAKHLSKRNCNIFLCSTPINLSSIKNRISDKDSSASIKLVELHLPSSPDLPPHYHTTNGLPSHLMVPLRNAFETAAPTFSEILKTLNPDLLIYDFNPSWAPEIASSHNIPAVCFIIGGAASFSMSLHSFKNPGEKYPFLDFDDNSNITPEPPSADNMKLLLDFMTCFERSCDIILIKSFRELEGKYFDFYSTLSDKTLVPVGPLVQDPMGHNEDPKTEQFINWLDKRAESTVVFVCFGSEYFLSNEELEEVAIGLEISMVNFIWAVRLIEGEKKGVLPEGFVQRVGDRGLVVEGWAPQARILGHSSTGGFVSHCGWSSIAESMKFGVPVIAMARHLDQPLNGKLAAEVGVGMEVVRDENGKYKREDIAGVIRKVVVEKSGEVIRRKARELSEKMKEIGEQLIDRAVEELVQICKKKKDEQ", "values": [
      {"measurement": "product formation from Rg1 and UDP-xylose (notoginsenoside R1)", "setting": "[1]", "value": "can catalyze the formation of Notoginsenoside RI"}
    ]},
    {"molecule": "GT29-11: Ginseng UDP-glycosyltransferase, 446 amino acids, SEQ ID NO: 20 (protein, misc_feature - GT29-11; Panax ginseng) MDNQKGRISIVMLPFLAHGHISPFFELAKHLSKRNCNIFLCSTPINLSSIKNRISDKDSSASIKLVELHLPSSPDLPPHYHTTNGLPSHLMVPLINAFETAGPTFSEILKTLNPDLLIYDFNPSWAPEIASSHNIPAVYFLTTAAASSSIGLHAFKNPGEKYPFPDFYDNSNNTPEPPSADNMKLLHDFIACFERSCDIILIKSFIELEGKYIDLLSTLSDKTLVPVGPLVQDPMGHNEDPKTEQIINWLDKRAESTVVFVCFGSEYFLSNEELEEVAIGLEISMVNFIWAVRLIEGEKKGVLPEGFVQRVGDRGLVVEGWAPQARILGHSSTGGFVSHCGWSSIAESMKFGVPVIAMARHLDQPLNGKLAAEVGVGMEVVRDENGKYKREGIAEVIRKVVVEKSGEVMRRKARELSEKMKEKGEEEIDRAVEELVQICKKKKDAQ", "values": [
      {"measurement": "product formation from Rg1 and UDP-xylose (notoginsenoside R1)", "setting": "[1]", "value": "can catalyze the formation of Notoginsenoside RI"}
    ]},
    {"molecule": "GT29-13: Ginseng UDP-glycosyltransferase, 446 amino acids, SEQ ID NO: 22 (protein, misc_feature - GT29-13; Panax ginseng) MDNQKGRISIVMLPFLAHGHISPFFELAKHLSKRNCNIFLCSTPINLSSIKNRISDKDSSASIKLVELHLPSSPDLPPHYHTTNGLPSHLMVPLRNAFETAAPTFSEILKTLNPDLLIYDFNPSWAPEIASSHNIPAVCFIIGGAASFSMSLHSFKNPGEKYPFLDFDDNSNITPEPPSADNMKLLLDFMTCFERSCDIILIKSFRELEGKYFDFYSTLSDKTLVPVGPLVQDPMGHNEDPKTEQFINWLDKRAESTVVFVCFGSEYFLSNEELEEVAIGLEISMVNFIWAVRLIEGEKKGVLPEGFVQRVGDRGLVVEGWAPQARILGHSSTGGFVSHCGWSSITESMKFGVPVIAMARHFDQPLNAKLAAEVGVVMEVVRDENGKYKREDIAGVIRKVVVEKSGEVIRRKARELSEKMKEIGEQLIDRAVEELVQICKKKKDEQ", "values": [
      {"measurement": "product formation from Rg1 and UDP-xylose (notoginsenoside R1)", "setting": "[1]", "value": "can catalyze the formation of Notoginsenoside RI"}
    ]},
    {"molecule": "GT29-17: Ginseng UDP-glycosyltransferase, 442 amino acids, SEQ ID NO: 24 (protein, misc_feature - GT29-17; Panax ginseng) MDNQEGRISIALLPFLAHGHISPFFELAKQLAKRNCNVFLCSTPINLSSIKNKDSSASIKLVELHLPSSPDLPPHYHTTNGLPSHLMVPLINAFETAGPTFSEILKTLNPDLLIYDFNPSWAPEIASSHNIPAVCFIIGGAASFSMSLHSFKNPGEKYPFLDFDDNSNITPEPPSADNMKLLLDFMTCFERSCDIILIKSFRELEGKYFDFYSTLSDKTLVPVGPLVQDPMGHNEDPKTEQFINWLDKRAESTVVFVCFGSEYFLSNEELEEVAIGLEISMVNFIWAVRLIEGEKKGVLPEGFVQRVGDRGLVVEGWAPQARILGHSSTGGFVSHCGWSSITESMKFGVPVIAMARHFDQPLNAKLAAEVGVGMEVVRDENGKYKREDIAGVIRKVVVEKSGEVIRRKARELSEKMKEIGEQLIDRAVEELVQICKKKKDEQ", "values": [
      {"measurement": "product formation from Rg1 and UDP-xylose (notoginsenoside R1)", "setting": "[1]", "value": "can catalyze the formation of Notoginsenoside RI"}
    ]},
    {"molecule": "GT29-18: Ginseng UDP-glycosyltransferase, 446 amino acids, SEQ ID NO: 26 (protein, misc_feature - GT29-18; Panax ginseng) MDNQKGRISIVMLPFLAHGHISPFFELAKHLSKRNCNIFLCSTPINLSSIKNRISDKDSSASIKLVELHLPSSPDLPPHYHTTNGLPSHLMVPLRNAFETAAPTFSEILKTLNPDLLIYDFNPSWAPEIASSHNIPAVCFIIGGAASFSMSLHSFKNPGEKYPFLDFDDNSNITPEPPSADNMKLLLDFMTCFERSCDIILIKSFRELEGKYFDFYSTLSDKTLVPVGPLVQDPMGHNEDPKTEQFINWLDKRAESTVVFVCFGSEYFLSNEELEEVAIGLEISMVNFIWAVRLIEGEKKGVLPEGFVQRVGDRGLVVEGWAPQARILGHSSTGGFVSHCGWSSITESMKFGVPVIAMARHFDQPLNAKLAAEVGVGMEVVRDENGKYKREDIAGVIRKVVVEKSGEVMRRKARELSEKMKEKGEEEIDRAVEELVQICKKKKDAQ", "values": [
      {"measurement": "product formation from Rg1 and UDP-xylose (notoginsenoside R1)", "setting": "[1]", "value": "can catalyze the formation of Notoginsenoside RI"}
    ]},
    {"molecule": "GT29-19: Ginseng UDP-glycosyltransferase, 442 amino acids, SEQ ID NO: 116 (protein, misc_feature - GT29-19; Panax ginseng) MDNQEGRISIALLPFLAHGHISPFFELAKQLAKRNCNVFLCSTPINLSSIKNKDSSASIKLVELHLPSSPDLPPHYHTTNGLPSHLMVPLINAFETAGPTFSEILKTLNPDLLIYDFNPSWAPEIASSHNIPAVYFLTTAAASSSIGLHAFKNPGEKYPFPDFYDNSNNTPEPPSADNMKLLHDFIACFERSCDIILIKSFIELEGKYIDLLSTLSDKTLVPVGPLVQDPMGHNEDPKTEQIINWLDKRAESTVVFVCFGSEYFLSNEELEEVAIGLEISMVNFIWAVRLIEGEKKGVLPEGFVQRVGDRGLVVEGWAPQARILGHSSTGGFVSHCGWSSITESMKFGVPVIAMARHFDQPLNAKLAAEVGVGMEVVRDENGKYKREDIAGVIRKVVVEKSGEVIRRKARELSEKMKEIGEQLIDRAVEELVQICKKKKDEQ", "values": [
      {"measurement": "product formation from Rh2 and UDP-glucose (Rg3)", "setting": "[2]", "value": "can all catalyze the extension of a glucosyl at the C-3 glycosyl of Rh2 to generate Rg3"},
      {"measurement": "product formation from Rd and UDP-xylose (replacement of second glucose at C-3 with xylose)", "setting": "[3]", "value": "can all catalyze the replacement of the second glucose at C-3 position of Rd with xylose"}
    ]},
    {"molecule": "GT29-20: Ginseng UDP-glycosyltransferase, 442 amino acids, SEQ ID NO: 118 (protein, misc_feature - GT29-20; Panax ginseng) MDNQKGRISIALLPFLAHGHISPFFELAKQLAKRNCNVFLCSTPINLSSIKDKDSSASIKLVELHLPSSPDLPPHYHTTNGLPSHLMLPLRNAFETAGPTFSEILKTLNPDLLIYDFNPSWAPEIASSHNIPAVYFLTTAAASSSIGLHAFKNPGEKYPFPDFYDNSNITPEPPSADNMKLLHDFIACFERSCDIILIKSFRELEGKYIDLLSTLSDKTLVPVGPLVQDPMGHNEDPKTEQIINWLDKRAESTVVFVCFGSEYFLSNEELEEVAIGLEISTVNFIWAVRLIEGEKKGILPEGFVQRAGDRGLVVEGWAPQARILGHSSTGGFVSHCGWSSIAESMKFGVPVIAMARHLDQPLNGKLAAEVGVGMEVVRDENGKYKREGIAEVIRKVVVEKSGEVIRRKARELSEKMKEKGEQEIDRALEELVQICKKKKDEQ", "values": [
      {"measurement": "product formation from Rh2 and UDP-glucose (Rg3)", "setting": "[2]", "value": "can all catalyze the extension of a glucosyl at the C-3 glycosyl of Rh2 to generate Rg3"},
      {"measurement": "product formation from Rd and UDP-xylose (replacement of second glucose at C-3 with xylose)", "setting": "[3]", "value": "can all catalyze the replacement of the second glucose at C-3 position of Rd with xylose"}
    ]}
  ]
}
